Laboratory results from FireProtDB (doi:10.1021/bi00072a011).
Where “and” joins values, the source holds several entries; their conditions need not be identical. Equal values may be shown once.

B1: Tryptophan synthase alpha chain, P00929 (parent)
chain: MERYENLFAQLNDRREGAFVPFVTLGDPGIEQSLKIIDTLIDAGADALELGVPFSDPLADGPTIQNANLRAFAAGVTPAQCFEMLALIREKHPTIPIGLLMYANLVFNNGIDAFYARCEQVGVDSVLVADVPVEESAPFRQAALRHNIAPIFICPPNADDDLLRQVASYGRGYTYLLSRSGVTGAENRGALPLHHLIEKLKEYHAAPALQGFGISSPEQVSAAVRAGAAGAISGSAIVKIIEKNLASPKQMLAELRSFVSAMKAASRA

Variants of: B1
Details: Salmonella typhimurium (strain LT2 / SGSC1412 / ATCC 700720); pH 7.8; 25 °C; Urea; CD; Potassium phosphate 10 mM; transition: 3; structure 2WSY; whole UniProt chain shown

Variant | denaturant m value | denaturant midpoint (higher = more stable) | unfolding free energy | ddG of mutation (higher = less stable)
MERYENLFAQLNDRREGAFVPFVTLGDPGIEQSLKIIDTLIDAGADALELGVPFSDPLADGPTIQNANLRAFAAGVTPAQCFEMLALIREKHPTIPIGLLMYANLVFNNGIDAFYARCEQVGVDSVLVADVPVEESAPFRQAALRHNIAPIFICPPNADDDLLRQVASYGRGYTQLLSRSGVTGAENRGALPLHHLIEKLKEYHAAPALQGFGISSPEQVSAAVRAGAAGAISGSAIVKIIEKNLASPKQMLAELRSFVSAMKAASRA [Y175Q] | 2.9 kcal/mol/M and 2.7 kcal/mol/M | 2.05 M and 2.91 M | 6 kcal/mol and 7.9 kcal/mol | –
MERYENLFAQLNDRREGGFVPFVTLGDPGIEQSLKIIDTLIDAGADALELGVPFSDPLADGPTIQNANLRAFAAGVTPAQCFEMLALIREKHPTIPIGLLMYANLVFNNGIDAFYARCEQVGVDSVLVADVPVEESAPFRQAALRHNIAPIFICPPNADDDLLRQVASYGRGYTYLLSRSGVTGAENRGALPLHHLIEKLKEYHAAPALQGFGISSPEQVSAAVRAGAAGAVSGSAIVKIIEKNLASPKQMLAELRSFVSAMKAASRA [A18G I232V] | 0.9 kcal/mol/M and 1.6 kcal/mol/M | 2.08 M and 3.46 M | 1.9 kcal/mol and 5.6 kcal/mol | –
MERYENLFAQLNDRREGAFVPFVTLGDPGIEQSLKIIDTLIDAGADALELGVPFSDPLADGPTIQNANLRAFAAGVTPAQCFEMLALIREKHPTIPIGLLMYANLVFNNGIDAFYARCEQVGVDSVLVADVPVEESAPFRQAALRHNIAPIFICPPNADDDLLRQVASYGRGYTYLLSRSGVTGAENRGALPLHHLIEKLKEYHAAPALQGFGISSPEQVSAAVRAGAAGAVSGSAIVKIIEKNLASPKQMLAELRSFVSAMKAASRA [I232V] | 1.5 kcal/mol/M and 1.3 kcal/mol/M | 2.31 M and 3.28 M | 3.5 kcal/mol and 4.3 kcal/mol | 3.9 kcal/mol and 1.5 kcal/mol
MERYENLFAQLNDRREGVFVPFVTLGDPGIEQSLKIIDTLIDAGADALELGVPFSDPLADGPTIQNANLRAFAAGVTPAQCFEMLALIREKHPTIPIGLLMYANLVFNNGIDAFYARCEQVGVDSVLVADVPVEESAPFRQAALRHNIAPIFICPPNADDDLLRQVASYGRGYTYLLSRSGVTGAENRGALPLHHLIEKLKEYHAAPALQGFGISSPEQVSAAVRAGAAGAVSGSAIVKIIEKNLASPKQMLAELRSFVSAMKAASRA [A18V I232V] | 2.1 kcal/mol/M and 1.8 kcal/mol/M | 2.12 M and 3.73 M | 4.4 kcal/mol and 6.8 kcal/mol | –
MERYENLFAQLNDRREGAFVPFVTLGDPGIEQSLKIIDTLIDAGADALELGVPFSDPLADGPTIQNANLRAFAAGVTPAQCFEMLALIREKHPTIPIGLLMYANLVFNNGIDAFYARCEQVGVDSVLVADVPVEESAPFRQAALRHNIAPIFICPPNADDDLLRQVASYGRGYTQLLSRSGVTGAENRGALPLHHLIEKLKEYHAAPAVQGFGISSPEQVSAAVRAGAAGAISGSAIVKIIEKNLASPKQMLAELRSFVSAMKAASRA [Y175Q L209V] | 1.6 kcal/mol/M and 2.2 kcal/mol/M | 2.23 M and 4.32 M | 3.6 kcal/mol and 9.7 kcal/mol | –
MERYENLFAQLNDRREGAFVPFVTLGDPGIEQSLKIIDTLIDAGADALELGVPFSDPLADGPTIQNANLRAFAAGVTPAQCFEMLALIREKHPTIPIGLLMYANLVFNNGIDAFYARCEQVGVDSVLVADVPVEESAPFRQAALRHNIAPIFICPPNADDDLLRQVASYGRGYTYLLSRSGVTGAENRGALPLHHLIEKLKEYHAAPAVQGFGISSPEQVSAAVRAGAAGAISGSAIVKIIEKNLASPKQMLAELRSFVSAMKAASRA [L209V] | 1.7 kcal/mol/M and 1.1 kcal/mol/M | 2.3 M and 3.44 M | 4 kcal/mol and 3.8 kcal/mol | 3.4 kcal/mol and 2 kcal/mol
MERYENLFAQLNDRREGVFVPFVTLGDPGIEQSLKIIDTLIDAGADALELGVPFSDPLADGPTIQNANLRAFAAGVTPAQCFEMLALIREKHPTIPIGLLMYANLVFNNGIDAFYARCEQVGVDSVLVADVPVEESAPFRQAALRHNIAPIFICPPNADDDLLRQVASYGRGYTYLLSRSGVTGAENRGALPLHHLIEKLKEYHAAPALQGFGISSPEQVSAAVRAGAAGAISGSAIVKIIEKNLASPKQMLAELRSFVSAMKAASRA [A18V] | 1.5 kcal/mol/M | 3.77 M and 2.24 M | 5.8 kcal/mol and 3.3 kcal/mol | –
MERYENLFAQLNDRREGGFVPFVTLGDPGIEQSLKIIDTLIDAGADALELGVPFSDPLADGPTIQNANLRAFAAGVTPAQCFEMLALIREKHPTIPIGLLMYANLVFNNGIDAFYARCEQVGVDSVLVADVPVEESAPFRQAALRHNIAPIFICPPNADDDLLRQVASYGRGYTYLLSRSGVTGAENRGALPLHHLIEKLKEYHAAPALQGFGISSPEQVSAAVRAGAAGAISGSAIVKIIEKNLASPKQMLAELRSFVSAMKAASRA [A18G] | 1.7 kcal/mol/M | 1.88 M | 3.3 kcal/mol | 4.1 kcal/mol
